# Laboratory results published in article PMC8038949, “Structural basis for the DNA-binding activity of human ARID4B Tudor domain”.
# T1: ARID4B TD121 E50L (Homo sapiens, UniProt Q4LE39 1-121, E50L)
# T1 sequence: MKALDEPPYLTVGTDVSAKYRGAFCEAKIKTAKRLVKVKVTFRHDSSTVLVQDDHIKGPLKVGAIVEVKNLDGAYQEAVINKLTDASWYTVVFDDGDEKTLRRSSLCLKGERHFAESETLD
# Target: T1, ARID4B TD121 E50L
# Assay: EMSA; stronger than wild-type ARID4B TD121; 50 mM Tris-HCl pH 7.6, 50 mM NaCl (buffer A); ITC 25 C; EMSA 4 C, 12 uM DNA, 8% native gel in TBE; NMR titration by 1H-15N HSQC (temperature not stated for titration; buffer A also defined elsewhere as 20 mM phosphate, 100 mM NaCl, pH 7.0)
# Settings: protein: recombinant; 5' overhang 1 nt on each strand (17 bp paired)
binder,measurement,value
dsDNA1 (dsDNA) DNA 1: CTCAGGTCAAAGGTCACG DNA 2: TCGTGACCTTTGACCTGA,binding result,binds
